Experimental data taken from US20220347267A1, “METHODS TO IMPROVE PATIENT RESPONSE TO IMMUNE CHECKPOINT INHIBITORS AND FUNCTIONAL TESTS TO PREDICT RESPONSE” (Biomarker Strategies, LLC, priority 2019, published 2022).

What was measured:
Assay in all cases: PD-L1 mRNA one step RT-qPCR, IFNγ treatment
Format in all cases: cell-based, human
[1] = system: H460 cells; details: 10 ng/mL IFNγ for 24h, normalized by GAPDH
Protocol: (§1) Additionally, the presence, abundance and ratio of different PD-L1 mRNA forms can be used to predict response. As way of example, PD-L1 mRNA were measured using primers amplifying within exon 3-4 (extracellular region of the transcribed protein that interacts with PD1). Other amplicons detecting the same or other forms can be used readily. For example, amplicons corresponding to the transmembrane and cytoplasmic tail to confirm full length plasma membrane bound protein is transcribed, or regions overlapping with either PD1 or anti-PD-L1 binding sites. Five cell lines (H460, H1299, H1650, H2126 and SKMES1) were treated with vehicle or 10 ng/mL IFNγ for 24h. More complex sample types, including cells isolated from solid tumors from preclinical and clinical cancers be used. Other time points, including those as early as 1h for IRF or 4h for PD-L1, can be readily used. RNA was isolated from the cells using an NEB kit (Cat #T2010) per the manufacturer's instructions. Isolated RNA was estimated using a NanoDrop […] and checked for its quality by checking the 260/280 ratio. RNA concentration was brought to 40 ng/uL in all the samples to take equal quantity for further steps of RT and real time PCR. One step RT-qPCR was performed using a Power SYBR Green RNA to Ct One step kit (Cat #4931198) as per the manufacturer's instructions. A 200 ng RNA template was taken for total 20 uL reaction per well in 96 well PCR microplate for Roche 480 Light cycler. The following primer pairs (Sigma) were used for PD-L1 and GAPDH and were used at a concentration in the reaction mixture of 400 nM:
(§2) A Roche 480 Light cycler was used for performing the one step real time PCR. Data was analyzed using 2^-ΔΔCt method normalized by GAPDH for relative levels. Alternative housekeeper genes may be readily used.

[2] = system: H1650 cells; details: 10 ng/mL IFNγ for 24h, 2^-ΔΔCt normalized by GAPDH
Protocol: as §1, §2

[3] = system: H1299 cells; details: 10 ng/mL IFNγ for 24h, 2^-ΔΔCt normalized by GAPDH
Protocol: as §1, §2

[4] = system: SKMES1 cells; details: 10 ng/mL IFNγ for 24h, normalized by GAPDH
Protocol: as §1, §2

[5] = system: H2126 cells; details: 10 ng/mL IFNγ for 24h, normalized by GAPDH
Protocol: as §1, §2

B1: IFNγ: human IFNγ, modulator (10 ng/ml; Sigma Aldrich) (protein, UniProt P01579 24-161, looked up)
Interferon gamma: QDPYVKEAENLKKYFNAGHSDVADNGTLFLGILKNWKEESDRKIMQSQIVSFYFKLFKNFKDDQSIQKSVETIKEDMNVKFFNSNKKKRDDFEKLTNYSVTDLNVQRKAIHELIQVMAELSPAAKTGKRKRSQMLFRG
[1]
  change of PD-L1 mRNA upon IFNγ exposure: decrease
[2]
  relative increase of PD-L1 mRNA upon IFNγ exposure: 2.2 fold
[3]
  relative increase of PD-L1 mRNA upon IFNγ exposure: 1.7 fold
[4]
  change of PD-L1 mRNA upon IFNγ exposure: no change
[5]
  change of PD-L1 mRNA upon IFNγ exposure: decrease
